For orientation: Kd means the constant that tells how readily two partners part at equilibrium. High values mean weaker binding, low ones tighter binding.

Holding throughout (experiment): fluorescence polarisation; FITC-labelled peptide fixed at 4 nM, arrestin titrated (0-50 μM; 0-3.20 μM for C-tail_6P); 20 mM HEPES pH 7.4, 100 mM NaCl, 0.01% DDM; room temperature, 30 min; One Site–Total fit; triplicate
The target of test [1] is NTSR1 C-tail peptide phosphorylated at Ser401/Ser403/Ser404 (human).
Test [2] deals with NTSR1 C-tail peptide phosphorylated at Thr407/Ser409/Ser410 (human).
In test [3] the target is NTSR1 C-tail peptide with hexa-phosphorylation at Ser401/Ser403/Ser404 and Thr407/Ser409/Ser410 (human).

Consider “human βArr1 truncated at residue 382 (constitutively active variant) (from UniProt P49407 1-382) (domain or fragment)”, for which the Kd turned out to be 5.11 µM in test [1], 3.77 µM in test [2] and 0.035 µM in test [3].

For the origin of these results see PMC11958688.
